# Earlier results, collected in patent publication US20150056205A1, “STEROID SPARING AGENTS AND METHODS OF USING SAME” (BIOGEN IDEC MA INC., priority 2004, published 2015).
# B1: mu MAb 21.6: mouse monoclonal antibody specific for the α4 subunit of VLA-4; donor immunoglobulin for the humanized antibodies (antibody, V domains shown)
# VH: MKCSWVMFFLMAVVTGVNSEVQLQQSGAELVKPGASVKLSCTASGFNIKDTYIHCVKQRPEQGLEWIGRIDPANGYTKYDPKFQGKATITADTSSNTAYLQLSSLTSEDTAVYFCAREGYYGNYGVYAMDYWGQGTSVTV
# VL: DIQMTQSPSSLSASLGGKVTITCKTSQDINKYMAWYQHKPGKRPRLLIHYTSALQPGIPSRFSGSGSGRDYSFNISNLEPEDIATYYCLQYDNLWTFGGGTKLEIK
# How the values were obtained:
# VLA-4 = VLA-4 (Homo sapiens, UniProt P13612); conditions: cited from earlier work
# α4 subunit of VLA-4 = target: T1, α4 subunit of VLA-4 (Homo sapiens, UniProt P13612); conditions: rat brain cells stimulated with tumor necrosis factor; cited from earlier work
# T1 construct: endogenous in cells; host or cells: human lymphocytes (adhering to TNF-stimulated rat brain cell cultures)
molecule,measurement,setting,value
B1,binding affinity for VLA-4,VLA-4,about 10^9 M^−1
same,inhibition of human lymphocyte binding to tissue cultures of rat brain cells,α4 subunit of VLA-4,inhibit human lymphocyte binding
